# Source: article PMC4850634, “Characterization of an A-kinase anchoring protein-like suggests an alternative way of PKA anchoring in Plasmodium falciparum” (Malaria Journal, 2016)
# Target: the molecule itself
# Experiment: SEC; Superdex S200 10/300 Increase, 20 mM Tris-HCl pH 8, 300 mM NaCl; affinity-purified (His)6 protein; peak fractions checked by 12.5 % SDS-PAGE
protein,measurement,value
"(His)6-Pf14-3-3I (natural protein, Plasmodium falciparum, UniProt C0H4V6 1-262, looked up, 14-3-3I protein, Plasmodium falciparum, PlasmoDB MAL8P1.69/PF3D7_0818200; amplified from a P. falciparum cDNA library with primers from the start to the stop codon, cloned into pRSFDuet; recombinant protein 30 kDa; source: E. coli BL21 Codon Plus, purified (Ni-NTA-agarose)) MATSEELKQLRCDCTYRSKLAEQAERYDEMADAMRTLVEQCVNNDKDELTVEERNLLSVAYKNAVGARRASWRIISSVEQKEMSKANVHNKNVAATYRKKVEEELNNICQDILNLLTKKLIPNTSESESKVFYYKMKGDYYRYISEFSCDEGKKEASNCAQEAYQKATDIAENELPSTHPIRLGLALNYSVFFYEILNQPHQACEMAKRAFDDAITEFDNVSEDSYKDSTLIMQLLRDNLTLWTSDLQGDQTEEKSKDEGLE",stoichiometry N,2
